Experimental findings from PMC3248148 are described below.

The experiment addresses human p23 co-chaperone (human) (UniProt Q15185). The experiment in a line: SEC; HiPrep Sephacryl S-200; each protein alone; 50mM Hepes, 150mM NaCl, 50mM KCl, 10mM MgCl2, 1mM DTT, pH 7.5; molecular weight interpolated from standards. In general terms: In gel filtration, larger molecules generally elute earlier.

In general, stoichiometry N refers to a count of units in the complex or per binding partner. Consider “human p23 co-chaperone (from UniProt Q15185 1-160) (natural protein)”, for which the stoichiometry N is 2.
